B1: v29453: "Representative humanized antibody variants ... of the mouse antibody" that specifically binds hNaPi2b (antibody, V domains shown)
VH: QVQLVQSGAEVKKPGASVKMSCKASGFTFTSYNVHWVRQAPGQGLEWIAAISPGNGDLSYAQKFQGRATLTVDRSTSTAYMELSSLRSEDTAVYYCARGRTGMGAVDYWGQGTLVTVSS
VL: DVQMTQSPSSLSASVGDRVTITCRASQDVYSYLNWYQQKPGKAVKLLIYYTSRLQSGVPSRFSGSGSGTDYTLTISSLQPEDFATYYCQQYNIFPWTFGQGTKLEIK
modifications: v29449, v29453, v29457 H4; v29453, v29454, v29455, v29456 L2
B2: v29454: "Representative humanized antibody variants ... of the mouse antibody" that specifically binds hNaPi2b (antibody, V domains shown)
VH: QVQLVQSGAEVKKPGASVKMSCKASGFTFTSYNVHWVRQAPGQGLEWIAAISPGNGDLSYAQKFQGRATLTVDTSTSTAYMELSSLRSEDTAVYYCARGRTGMGAVDYWGQGTLVTVSS
VL: DVQMTQSPSSLSASVGDRVTITCRASQDVYSYLNWYQQKPGKAVKLLIYYTSRLQSGVPSRFSGSGSGTDYTLTISSLQPEDFATYYCQQYNIFPWTFGQGTKLEIK
modifications: v29450, v29454, v29458 H3; v29453, v29454, v29455, v29456 L2
B3: v29460: "Representative humanized antibody variants ... of the mouse antibody" that specifically binds hNaPi2b (antibody, V domains shown)
VH: QVQLVQSGAEVKKPGASVKVSCKASGFTFTSYNVHWVRQAPGQGLEWMGAISPGNGDLSYAQKFQGRVTMTRDTSTSTVYMELSSLRSEDTAVYYCARGRTGMGAVDYWGQGTLVTVSS
VL: DIQMTQSPSSLSASVGDRVTITCRASQDVYSYLNWYQQKPGKAPKLLIYYTSRLQSGVPSRFSGSGSGTDFTLTISSLQPEDFATYYCQQYNIFPWTFGQGTKLEIK
modifications: v29452, v29460 H1; v29457, v29458, v29459, v29460 L1
B4: v29455: "Representative humanized antibody variants ... of the mouse antibody" that specifically binds hNaPi2b (antibody, V domains shown)
VH: QVQLVQSGAEVKKPGASVKVSCKASGFTFTSYNVHWVRQAPGQGLEWIAAISPGNGDLSYAQKFQGRVTMTVDTSTSTVYMELSSLRSEDTAVYYCARGRTGMGAVDYWGQGTLVTVSS
VL: DVQMTQSPSSLSASVGDRVTITCRASQDVYSYLNWYQQKPGKAVKLLIYYTSRLQSGVPSRFSGSGSGTDYTLTISSLQPEDFATYYCQQYNIFPWTFGQGTKLEIK
modifications: v29451, v29455, v29459 H2; v29453, v29454, v29455, v29456 L2
B5: v29449: "Representative humanized antibody variants ... of the mouse antibody" that specifically binds hNaPi2b (antibody, V domains shown)
VH: QVQLVQSGAEVKKPGASVKMSCKASGFTFTSYNVHWVRQAPGQGLEWIAAISPGNGDLSYAQKFQGRATLTVDRSTSTAYMELSSLRSEDTAVYYCARGRTGMGAVDYWGQGTLVTVSS
VL: DVQMTQSPSSLSASVGDRVTITCRASQDVYSYLNWYQQKPGKAVKLLIYYTSRLQSGVPSRFSGSGSGTDYTLTISSLQPEDIATYYCQQYNIFPWTFGQGTKLEIK
modifications: v29449, v29453, v29457 H4; v29449 L3
B6: v29458: "Representative humanized antibody variants ... of the mouse antibody" that specifically binds hNaPi2b (antibody, V domains shown)
VH: QVQLVQSGAEVKKPGASVKMSCKASGFTFTSYNVHWVRQAPGQGLEWIAAISPGNGDLSYAQKFQGRATLTVDTSTSTAYMELSSLRSEDTAVYYCARGRTGMGAVDYWGQGTLVTVSS
VL: DIQMTQSPSSLSASVGDRVTITCRASQDVYSYLNWYQQKPGKAPKLLIYYTSRLQSGVPSRFSGSGSGTDFTLTISSLQPEDFATYYCQQYNIFPWTFGQGTKLEIK
modifications: v29450, v29454, v29458 H3; v29457, v29458, v29459, v29460 L1
B7: v29457: "Representative humanized antibody variants ... of the mouse antibody" that specifically binds hNaPi2b (antibody, V domains shown)
VH: QVQLVQSGAEVKKPGASVKMSCKASGFTFTSYNVHWVRQAPGQGLEWIAAISPGNGDLSYAQKFQGRATLTVDRSTSTAYMELSSLRSEDTAVYYCARGRTGMGAVDYWGQGTLVTVSS
VL: DIQMTQSPSSLSASVGDRVTITCRASQDVYSYLNWYQQKPGKAPKLLIYYTSRLQSGVPSRFSGSGSGTDFTLTISSLQPEDFATYYCQQYNIFPWTFGQGTKLEIK
modifications: v29449, v29453, v29457 H4; v29457, v29458, v29459, v29460 L1
B8: v29459: "Representative humanized antibody variants ... of the mouse antibody" that specifically binds hNaPi2b (antibody, V domains shown)
VH: QVQLVQSGAEVKKPGASVKVSCKASGFTFTSYNVHWVRQAPGQGLEWIAAISPGNGDLSYAQKFQGRVTMTVDTSTSTVYMELSSLRSEDTAVYYCARGRTGMGAVDYWGQGTLVTVSS
VL: DIQMTQSPSSLSASVGDRVTITCRASQDVYSYLNWYQQKPGKAPKLLIYYTSRLQSGVPSRFSGSGSGTDFTLTISSLQPEDFATYYCQQYNIFPWTFGQGTKLEIK
modifications: v29451, v29455, v29459 H2; v29457, v29458, v29459, v29460 L1

Assay: Thermal stability by differential scanning calorimetry (DSC)
Type: physicochemical
Details: 0.4 mg/mL in PBS
Protocol: The thermal stability of the humanized antibody variants was assessed by differential scanning calorimetry (DSC) as described below.
400 μL of purified samples primarily at concentrations of 0.4 mg/mL in PBS were used for DSC analysis with a VP-Capillary DSC (Malvern Panalytical Inc., Westborough, MA). At the start of each DSC run, 5 buffer blank injections were performed to stabilize the baseline, and a buffer injection was placed before each sample injection for referencing. Each sample was scanned from 20° C. to 100° C. at a 60° C./hr rate, with low feedback, 8 sec filter, 3 min pre-scan thermostat, and 70 psi nitrogen pressure. The resulting thermograms were referenced and analyzed using Origin 7 software (OriginLab Corporation, Northampton, MA) to determine melting temperature (Tm) as an indicator of thermal stability.

Molecule	Fab Tm [°C]
B1	78.9
B2	79.7
B3	80.3
B4	81.5
B5	80.0
B6	81.6
B7	80.5
B8	83.1

Reference: patent US20260232827A1, “ANTIBODY-DRUG CONJUGATES TARGETING NAPI2B AND METHODS OF USE” (Zymeworks BC Inc., priority 2023, published 2026)
